Assay results published in the supplement of paper PMC7877785.
± gives the uncertainty stated by the source.

Experiment: self-splicing fitness, log relative to wild type (ln ratio); higher = more splicing; Tetrahymena group I intron in knt gene, E. coli kanamycin selection, DiMSum; sequences stand for … in CUCUCU…GGAGGGAAAAGUUAUCAGGCAUGCACCUGGUAGCUAGUCUUUAAACCAAUAGAUUGCAUCGGUUUAAAAGGCAAGACCGUCAAAUUGCGGGAAAGGGGUCAACAGCCGUUCAGUACCAAGUCUCAGGGGAAACUUUGAGAUGGCCUUGCAAAGGGUAUGGUAAUAAGCUGACGGACAUGGUCCUAACCACGCAGCCAAGUCCUAAGUCAACAGAUCUUCUGUUGAUAUGGAUGCAGUUCACAGACUAAAUGUCGGUCGGGGAAGAUGUAUUCUUCUCAUAAGAUAUAGUCGGACCUCUCCUUAAUGGGAGCUAGCGGAUGAAGUGAUGCAACACUGGAGCCGCUGGGAACUAAUUUGUAUGCGAAAGUAUAUUGAUUAGUUUUGGAGUACUCGUGGUCG
Procedure, shortened: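 Pooled colonies went to amplicon sequencing on an Illumina HiSeq 2500 after six replicate transformations. The plates were LB agar with 100 μg/mL carbenicillin, 50 μM IPTG and 0.2% rhamnose, with or without 25 μg/mL kanamycin, incubated overnight at 37°C or 30°C. The E. coli BL21(DE3) library had all eight P1ex-region intron nucleotides randomised, the intron placed in the knt kanamycin-resistance gene on pET-22b(+). DiMSum fitness is the error-weighted combination of replicate fold changes, kanamycin against none, normalised to wild type.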

| Sequence | self-splicing fitness (ln) (30 °C) | self-splicing fitness (ln) (37 °C) |
| --- | --- | --- |
| UGCCAGCAAUAUUACGGUAA | -1.15 ± 0.055 | -0.9 ± 0.059 |
| CCGCAGCAAUAUUACGGUUU | -3.45 ± 0.14 | -2.86 ± 0.16 |
| AGGCAGCAAUAUUACGAAGU | -2.32 ± 0.1 | -0.471 ± 0.098 |
| GCUGAGCAAUAUUACGCGUA |  | -2.23 ± 0.37 |
| AAAUAGCAAUAUUACGUUAC | -3.44 ± 0.22 | -2.77 ± 0.27 |
| CUGCAGCAAUAUUACGGGUC | -3.51 ± 0.23 | -3.07 ± 0.31 |
| CCGCAGCAAUAUUACGACCA | -3.34 ± 0.25 | -1.95 ± 0.25 |
| UGCGAGCAAUAUUACGCGGG | -2.61 ± 0.3 |  |
| ACGCAGCAAUAUUACGUGGA | -3.14 ± 0.14 | -2.37 ± 0.14 |
| CUCAAGCAAUAUUACGGAGA | -2.83 ± 0.19 | -1.98 ± 0.15 |
| CACGAGCAAUAUUACGCUUG | -3.27 ± 0.34 | -2.03 ± 0.47 |
| GUUAAGCAAUAUUACGGCUU | -1.22 ± 0.11 | -0.546 ± 0.14 |
| AGGUAGCAAUAUUACGUCAG | -2.334 ± 0.019 | -1.42 ± 0.035 |
| CUUUAGCAAUAUUACGAGGU | -3.4 ± 0.23 | -2.3 ± 0.27 |
| AGAGAGCAAUAUUACGUGAC |  | -1.43 ± 0.42 |
| GCCAAGCAAUAUUACGAACC | -2.03 ± 0.12 | -0.423 ± 0.14 |
| ACUCAGCAAUAUUACGACUU | -0.301 ± 0.054 | 0.0543 ± 0.073 |
| CGCAAGCAAUAUUACGAAAA | -2.47 ± 0.38 | -2.96 ± 0.4 |
| CCAGAGCAAUAUUACGUCAC | -2.34 ± 0.3 |  |
| CGUGAGCAAUAUUACGCAAG | -2.85 ± 0.15 | -0.853 ± 0.13 |
| GUAGAGCAAUAUUACGACUG | -1.22 ± 0.15 | -1.12 ± 0.24 |

| Sequence | self-splicing fitness (ln) (30 °C) | self-splicing fitness (ln) (37 °C) |
| --- | --- | --- |
| GAUAAGCAAUAUUACGAAUA | -2.53 ± 0.22 | -1.58 ± 0.3 |
| UCGAAGCAAUAUUACGCGGG | -2.18 ± 0.19 | -1.68 ± 0.19 |
| CCAGAGCAAUAUUACGAGUG | -1.2 ± 0.073 | -0.146 ± 0.092 |
| CAGUAGCAAUAUUACGGCCA | -1.17 ± 0.16 | -1.11 ± 0.21 |
| ACCAAGCAAUAUUACGGAAA | -3.14 ± 0.18 | -1.9 ± 0.13 |
| GGGCAGCAAUAUUACGUCCU |  | -3.02 ± 0.32 |
| UUGUAGCAAUAUUACGAGCG | -1.01 ± 0.14 | -0.454 ± 0.28 |
| ACAAAGCAAUAUUACGUCUA | -2.1 ± 0.083 | -0.824 ± 0.086 |
| GAUGAGCAAUAUUACGGUCC | -3.29 ± 0.2 | -2.27 ± 0.36 |
| CGAUAGCAAUAUUACGUCUG | 0.295 ± 0.061 | 0.0438 ± 0.072 |
| UUCAAGCAAUAUUACGCCUU | -1.8 ± 0.13 | -0.968 ± 0.2 |
| UCCUAGCAAUAUUACGGAUA | -2.52 ± 0.2 | -0.547 ± 0.13 |
| CCGCAGCAAUAUUACGCGAU | -3.44 ± 0.14 | -3.44 ± 0.21 |
| GACGAGCAAUAUUACGGGCC | -2.12 ± 0.14 | -1.63 ± 0.21 |
| GCAUAGCAAUAUUACGAUUC | -0.8 ± 0.083 | -0.436 ± 0.097 |
| CGCAAGCAAUAUUACGUUGG | -2.66 ± 0.096 | -1.02 ± 0.1 |
| UCCAAGCAAUAUUACGGAUU | -4.35 ± 0.2 | -3.1 ± 0.18 |
| UGGCAGCAAUAUUACGGCUU | -0.209 ± 0.075 | 0.316 ± 0.098 |
| UGGAAGCAAUAUUACGCCGA | -1.53 ± 0.26 | -0.201 ± 0.27 |
| ACUGAGCAAUAUUACGUCUA |  | -2.44 ± 0.25 |
| UGACAGCAAUAUUACGAAAU | -3.12 ± 0.19 | -2.74 ± 0.24 |

| Sequence | self-splicing fitness (ln) (30 °C) | self-splicing fitness (ln) (37 °C) |
| --- | --- | --- |
| GUGCAGCAAUAUUACGCCGA | -1.56 ± 0.13 | -0.832 ± 0.12 |
| ACUCAGCAAUAUUACGGAUC | -1.46 ± 0.1 | -0.352 ± 0.11 |
| CCGAAGCAAUAUUACGCCAU | -4.11 ± 0.27 | -3.25 ± 0.21 |
| UUUCAGCAAUAUUACGGAUA | -0.515 ± 0.11 | -0.565 ± 0.11 |
| UUGUAGCAAUAUUACGCUAG | -2.06 ± 0.22 | -0.816 ± 0.21 |
| GUUUAGCAAUAUUACGUGAG | -0.583 ± 0.062 | -0.124 ± 0.08 |
| UCUCAGCAAUAUUACGGCUG | -2.11 ± 0.13 | -2.21 ± 0.28 |
| AGUCAGCAAUAUUACGAUUG | -1.38 ± 0.11 | -0.258 ± 0.15 |
| UGAAAGCAAUAUUACGCGGU |  | -1.78 ± 0.36 |
| GAGAAGCAAUAUUACGUCUU | -2.33 ± 0.23 | -2.92 ± 0.36 |
| CACGAGCAAUAUUACGGAUC |  | -2.84 ± 0.3 |
| UACUAGCAAUAUUACGGUGA | -1.54 ± 0.11 | -0.0276 ± 0.12 |
| GGGCAGCAAUAUUACGGACC | -0.717 ± 0.25 | 0.0103 ± 0.36 |
| CGCUAGCAAUAUUACGGGCA | -0.187 ± 0.07 | -0.269 ± 0.079 |
| AGACAGCAAUAUUACGCCGC |  | -1.62 ± 0.38 |
| AGAUAGCAAUAUUACGACGU | 0.446 ± 0.097 | 0.203 ± 0.098 |
| AGUCAGCAAUAUUACGUCCU | -0.258 ± 0.1 | -0.279 ± 0.15 |
| UAAGAGCAAUAUUACGUUCG | -1.48 ± 0.11 | -0.784 ± 0.14 |
| UUCUAGCAAUAUUACGACAC | -2.05 ± 0.27 | -1.71 ± 0.28 |
| UCGUAGCAAUAUUACGGCUG | -3.29 ± 0.13 | -1.38 ± 0.14 |
| AGUGAGCAAUAUUACGUUUG | -3.7 ± 0.23 | -2.8 ± 0.24 |
